In patent US20250333542A1 (Hoffmann-La Roche, published 2025):

Assays:
[1] = target: T1, Fc (kih)-IFNGR1 monomer (P1AF7104) (UniProt P15260 18-245); test: SPR (Biacore 8K, 25 C), biotinylated Fc(kih)-IFNG captured on SA chip, Fc(kih)-IFNGR1 monomer as analyte, 1:1 Langmuir fit
T1 construct: Used as the soluble analyte in SPR; not shown: Fc (kih) part
T1 sequence (P15260 whole entry, species assumed, looked up): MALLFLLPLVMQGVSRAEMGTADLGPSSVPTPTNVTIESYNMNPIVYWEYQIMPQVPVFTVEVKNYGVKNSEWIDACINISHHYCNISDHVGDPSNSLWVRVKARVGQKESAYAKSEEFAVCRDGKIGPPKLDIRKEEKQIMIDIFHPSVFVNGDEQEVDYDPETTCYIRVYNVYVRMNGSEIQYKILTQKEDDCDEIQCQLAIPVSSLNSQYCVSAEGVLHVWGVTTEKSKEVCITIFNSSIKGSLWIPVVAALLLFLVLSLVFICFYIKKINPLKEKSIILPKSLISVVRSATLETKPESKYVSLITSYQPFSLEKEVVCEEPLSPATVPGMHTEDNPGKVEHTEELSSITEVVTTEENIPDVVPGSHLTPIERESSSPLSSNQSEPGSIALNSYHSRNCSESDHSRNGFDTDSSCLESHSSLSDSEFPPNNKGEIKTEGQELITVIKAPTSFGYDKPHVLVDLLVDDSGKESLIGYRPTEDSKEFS
Protocol: (§1) The binding behaviour of IFNG variants towards IFNGR1 and IFNGR1/2 was assessed by surface plasmon resonance (SPR). SPR experiments were performed on a Biacore 8K device at 25° C. with HBS-EP as running buffer (0.01 M HEPES pH 7.4, 0.15 M NaCl, 3 mM EDTA, 0.005% Surfactant P20, Biacore, Freiburg/Germany). […] IFNG mutation series compounds were immobilised at a concentration of 25 nM, 80 s contact time and 10 μL/min. Immobilisation levels up to 450 resonance units (RU) were used. Subsequently, decreasing concentrations (800-3.13 nM) of Fc (kih)-IFNGR1 monomer or Fc (kih)-IFNGR1/2 heterodimer were injected as a second analyte with a flow rate of 30 μL/min over 120 seconds and dissociation was monitored for 500 s. Bulk refractive index differences were corrected for by subtracting the response obtained in a reference flow cell, where no protein was immobilised. […]
(§2) To further evaluate analogous properties of wild-type IFNG and our engineered compound with C-terminal KRKRP (SEQ ID NO:1), we determined the binding affinities of IFNG variants towards IFNG receptors by SPR. […] As second analytes, either IFNGR1 monomer (P1AF7104) or IFNGR1/2 heterodimer (P1AF8126) were passed through the flow cell at different concentrations and dissociation constants (KD) were calculated based on observed association and dissociation behaviour.

[2] = target: T2, Fc (kih)-IFNGR1/2 heterodimer (P1AF8126) (UniProt P15260 18-245; P38484 28-247, limits assumed); test: SPR (Biacore 8K, 25 C), biotinylated Fc(kih)-IFNG captured on SA chip, Fc(kih)-IFNGR1/2 heterodimer as analyte, 1:1 Langmuir fit; IFNG KRKRP variant, IFNGR1/2 heterodimer as analyte
T2 construct: Used as the soluble analyte in SPR; also called Fc (kih)-IFNGR1/R2 heterodimer; IFNGR1/R2; not shown: Fc (kih) chain
T2 sequence (looked up) 1: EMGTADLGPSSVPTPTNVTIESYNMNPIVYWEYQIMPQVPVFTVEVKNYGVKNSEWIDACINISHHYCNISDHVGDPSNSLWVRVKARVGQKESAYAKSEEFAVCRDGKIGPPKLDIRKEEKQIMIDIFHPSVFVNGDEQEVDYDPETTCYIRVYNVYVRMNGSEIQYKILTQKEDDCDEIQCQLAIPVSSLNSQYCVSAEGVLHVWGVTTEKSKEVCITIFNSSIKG
T2 sequence (looked up) 2: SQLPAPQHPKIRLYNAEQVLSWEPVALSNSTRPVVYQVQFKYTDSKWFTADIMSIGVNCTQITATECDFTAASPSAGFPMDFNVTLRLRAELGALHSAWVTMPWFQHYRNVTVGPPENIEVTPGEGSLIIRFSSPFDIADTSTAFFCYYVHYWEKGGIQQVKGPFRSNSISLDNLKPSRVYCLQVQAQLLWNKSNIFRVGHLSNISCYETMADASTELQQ
Protocol: as §1, §2

Kd [1]: 154 nM
Kd [2]: 54.4 nM
B1: Fc (kih)-IFNG KRKRP (P1AG1550) (Fc fusion)
chain: QDPYVKEAENLKKYFNAGHSDVADNGTLFLGILKNWKEESDRKIMQSQIVSFYFKLFKNFKDDQSIQKSVETIKEDMNVKFFNSNKKKRDDFEKLTNYSVTDLNVQRKAIHELIQVMAELSPAAKTGKRKRP
modifications: biotinylated (site not stated)
notes: Produced as a C-terminal Fc (kih)-fusion protein; not shown: Fc (kih) chain (knob: S354C, T366W; hole: Y349C, T366S, L368A, Y410V as printed) and any linker
